Test results from patent US20090149339A1 (published 2009).
Ends that are not written are not given here. * marks the point of attachment. Biotin = O=C1N[C@H]2[C@H](CS[C@H]2CCCCC(=O)*)N1

Columns and labels:
[1] = biological target: T1, GST-RGS12 PDZ domain fusion protein (human regulator of G-protein signalling 12 AA35-103; PDZ domain 1 of 1) (human, UniProt P08515 1-218 = GST); assay: A assay
T1 construct: also called RSG12

[2] = biological target: T2, GST-LIM PDZ domain fusion protein (Human LIM protein AA29-112; PDZ domain 1 of 1) (human, UniProt P08515 1-218 = GST); assay: A assay
[3] = biological target: T3, GST-MPP1 PDZ domain fusion protein (55 Kd erythrocyte membrane protein AA101-186; PDZ domain 1 of 1) (UniProt P08515 1-218 = GST); assay: A assay
[4] = biological target: T4, GST-41.8 kD PDZ domain fusion protein (hypothetical 41.8 kD protein AA4-85; PDZ domain 1 of 1) (UniProt P08515 1-218 = GST); assay: A assay
T4 construct: also called hypoth

[5] = biological target: T5, GST-NeDLG PDZ domain fusion protein (presynaptic protein sao102, neuroendocrine-dlg; PDZ domains 1-2 of 3) (UniProt P08515 1-218 = GST); assay: A assay
T5 construct: also called NeDLG1

[6] = biological target: T6, GST-AF6 PDZ domain fusion protein (af-6 protein AA985-1077; PDZ domain 1 of 1) (UniProt P08515 1-218 = GST); assay: A assay
[7] = biological target: T7, GST-MPP2 PDZ domain fusion protein (maguk p55 subfamily member 2 (DLG2) AA185-273; PDZ domain 1 of 1) (UniProt P08515 1-218 = GST); assay: G assay
T7 construct: also called MMP2

[8] = biological target: T8, GST-PSD95 PDZ domain fusion protein (human post-synaptic density protein 95 AA387-724; PDZ domains 1-3 of 3) (human, UniProt P08515 1-218 = GST); assay: A and G assays
[9] = biological target: T9, GST-PTN-4 PDZ domain fusion protein (protein-tyrosine phosphatase meg1 AA774-862; PDZ domain 1 of 1) (UniProt P08515 1-218 = GST); assay: A/G assays
[10] = biological target: T10, GST-KIAA0316 PDZ domain fusion protein (KIAA0316 AA197-284; PDZ domain 1 of 1) (UniProt P08515 1-218 = GST); assay: A/G assays
T10 construct: also called K316

[11] = biological target: T11, GST-TAX2 PDZ domain fusion protein (human tax interaction protein 2 AA54-140; PDZ domain 1 of 1) (human, UniProt P08515 1-218 = GST); assay: A/G assays
T11 construct: also called TX 2

[12] = biological target: GST-MINT3 PDZ domain fusion protein (human MINT3 AA11-52; PDZ domain 1 of 1) (human, UniProt P08515 1-218 = GST); assay: A/G assays
[13] = biological target: T12, GST-CASK PDZ domain fusion protein (CASK AA495-584; PDZ domain 1 of 1) (mouse, UniProt P08515 1-218 = GST); assay: A/G assays
T12 construct: also called mCASK

[14] = biological target: GST-NOS1 PDZ domain fusion protein (human neuronal nitric oxide synthase; PDZ domain 1 of 1) (human, UniProt P08515 1-218 = GST); assay: A/G assays
[15] = biological target: T13, GST-SYN1a PDZ domain fusion protein (alpha1-syntrophin AA96-189; PDZ domain 1 of 1) (UniProt P08515 1-218 = GST); assay: A/G assays
T13 construct: also called SYN 1 alpha; SYNTR 1 alpha

[16] = biological target: T14, GST-KIAA0303 PDZ domain fusion protein (KIAA0303 AA652-742; PDZ domain 1 of 1) (UniProt P08515 1-218 = GST); assay: A/G assays
T14 construct: also called K303

[17] = biological target: T15, GST-TAX40 PDZ domain fusion protein (human tax interaction protein 40 AA35-137; PDZ domain 1 of 1) (human, UniProt P08515 1-218 = GST); assay: A/G assays
T15 construct: also called TX 40

[18] = biological target: T16, GST-TIAM1 PDZ domain fusion protein (T-lymphoma invasion and metastasis inducing protein 1 AA1001-1088); PDZ 1 … (UniProt P08515 1-218 = GST); assay: A/G assays
[19] = biological target: GST-prIL16 PDZ domain fusion protein (putative interleukin 16 precursor AA170-383; PDZ domains 1-2 of 2) (UniProt P08515 1-218 = GST); assay: A/G assays
[20] = biological target: T17, GST-TAX43 PDZ domain fusion protein (human tax interaction protein 43 AA15-85; PDZ domain 1 of 1) (human, UniProt P08515 1-218 = GST); assay: A/G assays
T17 construct: also called TX 43

[21] = biological target: T18, GST-CBP PDZ domain fusion protein (Cytohesin binding protein HE AA85-175; PDZ domain 1 of 1) (UniProt P08515 1-218 = GST); assay: A/G assays
T18 construct: also called Prot

[22] = biological target: GST-DVL1 PDZ domain fusion protein (human dishevelled segment polarity protein homolog AA248-340); PDZ domain … (human, UniProt P08515 1-218 = GST); assay: A/G assays
[23] = biological target: T19, GST-TAX33 PDZ domain fusion protein (tax interaction protein 33 AA73-162; PDZ domain 1 of 1) (UniProt P08515 1-218 = GST); assay: A/G assays
T19 construct: also called TX33

[24] = biological target: GST-LIMK2 PDZ domain fusion protein (human LIM domain kinase 2 AA185-275; PDZ domain 1 of 1) (human, UniProt P08515 1-218 = GST); assay: A/G assays
[25] = biological target: T20, GST-KIAA0559 PDZ domain fusion protein (KIAA0559 AA766-870; PDZ1 of 1) (UniProt P08515 1-218 = GST); assay: A/G assays
T20 construct: also called K559

[26] = biological target: T14, GST-KIAA0303 PDZ domain fusion protein …; assay: A assay
[27] = biological target: T16, GST-TIAM1 PDZ domain fusion protein …; assay: A assay
[28] = biological target: T8, GST-PSD95 PDZ domain fusion protein …; assay: A/G assays
[29] = biological target: T1, GST-RGS12 PDZ domain fusion protein …; assay: A/G assays
[30] = biological target: T2, GST-LIM PDZ domain fusion protein …; assay: A/G assays
[31] = biological target: T7, GST-MPP2 PDZ domain fusion protein …; assay: A/G assays
[32] = biological target: T6, GST-AF6 PDZ domain fusion protein (af-6 …); assay: A/G assays
[33] = biological target: T9, GST-PTN-4 PDZ domain fusion protein …; assay: G assay
[34] = biological target: T1, GST-RGS12 PDZ domain fusion protein …; assay: G assay
[35] = biological target: T3, GST-MPP1 PDZ domain fusion protein (55 …); assay: A/G assays
[36] = biological target: T4, GST-41.8 kD PDZ domain fusion protein …; assay: A/G assays
[37] = biological target: T5, GST-NeDLG PDZ domain fusion protein …; assay: A/G assays

T3 sequence (P08515 1-218, tags or fused parts left off): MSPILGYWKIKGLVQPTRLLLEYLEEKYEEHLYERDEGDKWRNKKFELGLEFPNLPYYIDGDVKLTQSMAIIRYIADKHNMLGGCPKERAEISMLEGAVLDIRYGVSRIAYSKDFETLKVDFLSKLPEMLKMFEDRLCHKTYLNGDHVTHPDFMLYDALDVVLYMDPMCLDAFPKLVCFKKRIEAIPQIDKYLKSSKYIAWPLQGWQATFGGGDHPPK
Sequence of GST-MINT3 PDZ domain fusion protein (human MINT3 AA11-52; PDZ domain 1 of 1) (P08515 1-218, tags or fused parts left off): as above
T2 sequence (P08515 1-218, tags or fused parts left off): as above
T18 sequence (P08515 1-218, tags or fused parts left off): as above
T6 sequence (P08515 1-218, tags or fused parts left off): as above
T20 sequence (P08515 1-218, tags or fused parts left off): as above
T1 sequence (P08515 1-218, tags or fused parts left off): as above
T12 sequence (P08515 1-218, tags or fused parts left off): as above
T9 sequence (P08515 1-218, tags or fused parts left off): as above
T14 sequence (P08515 1-218, tags or fused parts left off): as above
T4 sequence (P08515 1-218, tags or fused parts left off): as above
T11 sequence (P08515 1-218, tags or fused parts left off): as above
Sequence of GST-DVL1 PDZ domain fusion protein (human dishevelled segment polarity protein homolog AA248-340); PDZ domain … (P08515 1-218, tags or fused parts left off): as above
T19 sequence (P08515 1-218, tags or fused parts left off): as above
T16 sequence (P08515 1-218, tags or fused parts left off): as above
Sequence of GST-prIL16 PDZ domain fusion protein (putative interleukin 16 precursor AA170-383; PDZ domains 1-2 of 2) (P08515 1-218, tags or fused parts left off): as above
T8 sequence (P08515 1-218, tags or fused parts left off): as above
T7 sequence (P08515 1-218, tags or fused parts left off): as above
T15 sequence (P08515 1-218, tags or fused parts left off): as above
Sequence of GST-NOS1 PDZ domain fusion protein (human neuronal nitric oxide synthase; PDZ domain 1 of 1) (P08515 1-218, tags or fused parts left off): as above
Sequence of GST-LIMK2 PDZ domain fusion protein (human LIM domain kinase 2 AA185-275; PDZ domain 1 of 1) (P08515 1-218, tags or fused parts left off): as above

Binder	binding result [3]	binding result [4]	binding result [5]	binding result [9]	binding result [10]	binding result [11]	binding result [12]	binding result [13]	binding result [14]	binding result [15]	binding result [16]	binding result [17]	binding result [18]	binding result [19]	binding result [20]	binding result [21]	binding result [22]	binding result [23]	binding result [24]	binding result [25]	further results
Biotin-TREDIYVNYPTFSRRPKTRV [DNAM-1 C-terminal PL peptide AA22L, biotinylated]	binds	binds	binds	no binding	no binding	no binding	no binding	no binding	no binding	no binding	no binding	no binding	no binding	no binding	no binding	no binding	no binding	no binding	no binding	no binding	binding result [1]: binds; binding result [2]: binds; binding result [6]: binds; binding result [7]: binds; binding result [8]: binds
Biotin-ARKANMKGSYSLVEAQKSKV (also called CD106) [VCAM1 C-terminal PL peptide AA17L, biotinylated]	binds	binds	binds	no binding	no binding	no binding	no binding	no binding	no binding	no binding		no binding		no binding	no binding	no binding	no binding	no binding	no binding	no binding	binding result [26]: binds; binding result [27]: binds; binding result [28]: no binding; binding result [29]: no binding; binding result [30]: no binding; binding result [31]: no binding; binding result [32]: no binding
Biotin-EVICYIEKPGVETLEDSVF [CDW125 (IL5R) C-terminal PL peptide AA28L, biotinylated]					no binding	no binding	no binding	no binding	no binding	no binding	no binding	no binding	no binding	no binding	no binding	no binding	no binding	no binding	no binding	no binding	binding result [33]: binds; binding result [34]: binds; binding result [28]: no binding; binding result [30]: no binding; binding result [31]: no binding; binding result [35]: no binding; binding result [36]: no binding; binding result [37]: no binding; binding result [32]: no binding
